The values that follow come from patent publication US20230302104.

Data set [1] deals with rhAAT (recombinant alpha1-antitrypsin, preparations not specified per panel).
The target in data set [2] is AAT (alpha1-antitrypsin; preparation not stated in Example 15), P01009.
Chain of AAT (alpha1-antitrypsin; preparation not stated in Example 15), P01009 (P01009 whole entry, looked up): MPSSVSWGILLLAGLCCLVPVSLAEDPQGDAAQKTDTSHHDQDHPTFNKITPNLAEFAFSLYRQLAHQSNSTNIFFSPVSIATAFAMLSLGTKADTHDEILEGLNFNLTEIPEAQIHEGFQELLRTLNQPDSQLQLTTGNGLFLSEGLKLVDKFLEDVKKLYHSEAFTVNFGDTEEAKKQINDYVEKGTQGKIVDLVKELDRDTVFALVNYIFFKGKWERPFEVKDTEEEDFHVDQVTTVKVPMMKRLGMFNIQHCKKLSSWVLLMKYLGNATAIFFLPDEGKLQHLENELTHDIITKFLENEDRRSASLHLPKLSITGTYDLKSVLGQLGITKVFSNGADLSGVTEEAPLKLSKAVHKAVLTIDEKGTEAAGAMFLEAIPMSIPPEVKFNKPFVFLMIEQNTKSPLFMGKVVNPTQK

B1: purified human neutrophil elastase (ELA2) (protein)
chain: IVGGRRARPHAWPFMVSLQLRGGHFCGATLIAPNFVMSAAHCVANVNVRAVRVVLGAHNLSRREPTRQVFAVQRIFENGYDPVNLLNDIVILQLNGSATINANVQVAQLPAQGRRLGNGVQCLAMGWGLLGRNRGIASVLQELNVTVVTSLCRRSNVCTLVRGRQAGVCFGDSGSPLVCNGLIHGIASFVRGGCASGLYPDAFAPVAQFVNWIDSIIQ
Regarding B1, the “neutrophil elastase protease activity, MeOSuc-AAPV-pNA substrate assay (Vmax, % of untreated); AAT at 1 nM and 10 nM” value in data set [1] was “AAT and rhAAT inhibits neutrophil elastase protease activity”.

B2: TMPRSS2 recombinant protein (creative biomart) (protein)
chain: WKFMGSKCSNSGIECDSSGTCINPSNWCDGVSHCPGGEDENRCVRLYGPNFILQVYSSQRKSWHPVCQDDWNENYGRAACRDMGYKNNFYSSQGIVDDSGSTSFMKLNTSAGNVDIYKKLYHSDACSSKAVVSLRCIACGVNLNSSRQSRIVGGESALPGAWPWQVSLHVQNVHVCGGSIITPEWIVTAAHCVEKPLNNPWHWTAFAGILRQSFMFYGAGYQVEKVISHPNYDSKTKNNDIALMKLQKPLTFNDLVKPVCLPNPGMMLQPEQLCWISGWGATEEKGKTSEVLNAAKVLLIETQRCNSRYVYDNLITPAMICAGFLQGNVDSCQGDSGGPLVTSKNNIWWLIGDTSWGSGCAKAYRPGVYGNVMVFTDWIYRQMRADG
As to B2, the “TMPRSS2 protease activity (cleavage of Boc-QAR-AMC peptide, fluorescence, Vmax)” value in data set [2] is “AAT inhibits TMPRSS2 protease activity”.
